Assay results taken from patent US20200368279.

Tests used:
Test in all cases: cell_activity
[1] = tested on: SBS75606 ZFN; conditions: pair with SBS75609, K562, 15 ug/mL mRNA; 70.1 at 3.75 ug/mL
[2] = tested on: SBS75714 ZFN; conditions: pair with SBS75715, K562, 15 ug/mL mRNA; 84.0 at 3.75 ug/mL
[3] = tested on: SBS75895 ZFN; conditions: pair with SBS75893, K562, 15 ug/mL mRNA; 76.6 at 3.75 ug/mL
[4] = tested on: SBS75609 ZFN; conditions: pair with SBS75606, K562, 15 ug/mL mRNA; 70.1 at 3.75 ug/mL
[5] = tested on: SBS75592 ZFN; conditions: pair with SBS75591, K562, 15 ug/mL mRNA; 80.0 at 3.75 ug/mL
[6] = tested on: SBS75715 ZFN; conditions: pair with SBS75714, K562, 15 ug/mL mRNA; 84.0 at 3.75 ug/mL
[7] = tested on: SBS75893 ZFN; conditions: pair with SBS75895, K562, 15 ug/mL mRNA; 76.6 at 3.75 ug/mL
[8] = tested on: SBS75591 ZFN; conditions: pair with SBS75592, K562, 15 ug/mL mRNA; 80.0 at 3.75 ug/mL

Work on “AAGGAGGTGCTCCTGGAATTACTTAGCA (double strand) [SBS75606 target]” yielded an activity [1] of 91.4 % indels.

“AGGGATGGGATGACTTGGCTTTAGGTCA (double strand) [SBS75714 target]” gave an activity [2] of 90.7 % indels.

Sequence “AGGTTGGGAGTGGGGTCTTGTTCAGGGC (double strand) [SBS75895 target]” has an activity [3] of 91.3 % indels.

“CTCCCCTGACCAAGGAAAATCGGGGTGG (double strand) [SBS75609 target]” gave an activity [4] of 91.4 % indels.

“GCTAAGTAATTCCAGGAGCACCTCCTTT (double strand) [SBS75592 target]” gave an activity [5] of 91.2 % indels.

“GGACTCAGGTGGGGGGTCTAGGGGTGAG (double strand) [SBS75715 target]” showed an activity [6] of 90.7 % indels.

With “GGGCTAGGGCTGAAGTGAGGTGAAAGGT (double strand) [SBS75893 target]” the activity [7] was 91.3 % indels.

Work on “TCGGCCATCAGAAGGGAGGGACCCTGCT (double strand) [SBS75591 target]” yielded an activity [8] of 91.2 % indels.
